Reference: paper PMC10397247

Columns and labels:
Test in all cases: two-hybrid library CCNG1;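 note: natural log of median RNA to DNA barcode read ratio; higher means stronger binding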
4H1193-bN = biological target: T1, 4H1193-bN
T1 chain: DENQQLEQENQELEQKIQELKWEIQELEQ

4H1328-bN = biological target: T2, 4H1328-bN
T2 chain: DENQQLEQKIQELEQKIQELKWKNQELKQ

4H1369-bN = biological target: T3, 4H1369-bN
T3 chain: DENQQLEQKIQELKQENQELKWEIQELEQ

4H1387-bN = biological target: T4, 4H1387-bN
T4 chain: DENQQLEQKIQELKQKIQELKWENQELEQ

4H1406-bN = biological target: T5, 4H1406-bN
T5 chain: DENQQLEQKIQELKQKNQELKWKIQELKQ

4H1446-bN = biological target: T6, 4H1446-bN
T6 chain: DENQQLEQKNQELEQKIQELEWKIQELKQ

4H1845-bN = biological target: T7, 4H1845-bN
T7 chain: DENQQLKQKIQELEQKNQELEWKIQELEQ

4H2576-bN = biological target: T8, 4H2576-bN
T8 chain: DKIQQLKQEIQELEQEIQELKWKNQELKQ

4H2610-bN = biological target: T9, 4H2610-bN
T9 chain: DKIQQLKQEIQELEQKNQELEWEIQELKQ

4H2667-bN = biological target: T10, 4H2667-bN
T10 chain: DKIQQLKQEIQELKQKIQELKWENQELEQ

4H2697-bN = biological target: T11, 4H2697-bN
T11 chain: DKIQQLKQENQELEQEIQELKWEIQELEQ

4H3189-bN = biological target: T12, 4H3189-bN
T12 chain: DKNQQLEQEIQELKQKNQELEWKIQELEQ

4H331-bN = biological target: T13, 4H331-bN
T13 chain: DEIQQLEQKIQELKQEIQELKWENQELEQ

4H3592-bN = biological target: T14, 4H3592-bN
T14 chain: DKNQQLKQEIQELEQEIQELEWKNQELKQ

4H3601-bN = biological target: T15, 4H3601-bN
T15 chain: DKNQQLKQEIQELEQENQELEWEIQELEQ

4H3606-bN = biological target: T16, 4H3606-bN
T16 chain: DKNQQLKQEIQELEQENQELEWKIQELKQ

4H370-bN = biological target: T17, 4H370-bN
T17 chain: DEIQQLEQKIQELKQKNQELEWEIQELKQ

4H3782-bN = biological target: T18, 4H3782-bN
T18 chain: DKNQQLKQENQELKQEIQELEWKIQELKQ

4H3843-bN = biological target: T19, 4H3843-bN
T19 chain: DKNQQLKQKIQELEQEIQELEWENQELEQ

4H3907-bN = biological target: T20, 4H3907-bN
T20 chain: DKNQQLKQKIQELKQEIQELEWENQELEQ

4H4001-bN = biological target: T21, 4H4001-bN
T21 chain: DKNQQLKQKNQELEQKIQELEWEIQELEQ

4H4038-bN = biological target: T22, 4H4038-bN
T22 chain: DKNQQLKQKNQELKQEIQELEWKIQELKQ

4H462-bN = biological target: T23, 4H462-bN
T23 chain: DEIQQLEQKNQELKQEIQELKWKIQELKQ

4H568-bN = biological target: T24, 4H568-bN
T24 chain: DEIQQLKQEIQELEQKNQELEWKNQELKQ

4H607-bN = biological target: T25, 4H607-bN
T25 chain: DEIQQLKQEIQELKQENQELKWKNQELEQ

4H687-bN = biological target: T26, 4H687-bN
T26 chain: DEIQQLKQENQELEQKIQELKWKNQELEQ

4H72-bN = biological target: T27, 4H72-bN
T27 chain: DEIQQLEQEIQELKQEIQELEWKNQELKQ

4H797-bN = biological target: T28, 4H797-bN
T28 chain: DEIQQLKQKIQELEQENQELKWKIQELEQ

4H883-bN = biological target: T29, 4H883-bN
T29 chain: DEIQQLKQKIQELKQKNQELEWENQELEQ

4H918-bN = biological target: T30, 4H918-bN
T30 chain: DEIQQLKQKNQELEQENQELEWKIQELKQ

4H953-bN = biological target: T31, 4H953-bN
T31 chain: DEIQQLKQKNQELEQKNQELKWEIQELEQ

4H967-bN = biological target: T32, 4H967-bN
T32 chain: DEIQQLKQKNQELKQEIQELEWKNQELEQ

interaction score (4H1193-bN): -1.79 | interaction score (4H1328-bN): -0.785 | interaction score (4H1369-bN): -0.409 | interaction score (4H1387-bN): -2.15 | interaction score (4H1406-bN): -0.457 | interaction score (4H1446-bN): -0.688 | interaction score (4H1845-bN): -0.197 | interaction score (4H2576-bN): -2.2 | interaction score (4H2610-bN): -2.18 | interaction score (4H2667-bN): -1.42 | interaction score (4H2697-bN): -0.604 | interaction score (4H3189-bN): -0.76 | interaction score (4H331-bN): -1.06 | interaction score (4H3592-bN): -0.683 | interaction score (4H3601-bN): -0.788 | interaction score (4H3606-bN): -0.563 | interaction score (4H370-bN): -1.1 | interaction score (4H3782-bN): 1.24 | interaction score (4H3843-bN): -1.2 | interaction score (4H3907-bN): -0.628 | interaction score (4H4001-bN): -0.667 | interaction score (4H4038-bN): 1.89 | interaction score (4H462-bN): 1.11 | interaction score (4H568-bN): -0.982 | interaction score (4H607-bN): -0.718 | interaction score (4H687-bN): -0.463 | interaction score (4H72-bN): -2.07 | interaction score (4H797-bN): -0.958 | interaction score (4H883-bN): -0.365 | interaction score (4H918-bN): -1.23 | interaction score (4H953-bN): -0.991 | interaction score (4H967-bN): -0.916
Binder: DENQQLEQENQELEQKIQELKWEIQELEQ [4H1193-bN]
